# Data reported in IntAct's records for PubMed 19233177.
# B1: Polycomb complex protein BMI-1 (Homo sapiens), P35226 (parent)
# chain: MHRTTRIKITELNPHLMCVLCGGYFIDATTIIECLHSFCKTCIVRYLETSKYCPICDVQVHKTRPLLNIRSDKTLQDIVYKLVPGLFKNEMKRRRDFYAAHPSADAANGSNEDRGEVADEDKRIITDDEIISLSIEFFDQNRLDRKVNKDKEKSKEEVNDKRYLRCPAAMTVMHLRKFLRSKMDIPNTFQIDVMYEEEPLKDYYTLMDIAYIYTWRRNGPLPLKYRVRPTCKRMKISHQRDGLTNAGELESDSGSDKANSPAGGIPSTSSCLPSPSTPVQSPHPQFPHISSTMNGTSNSPSGNHQSSFANRPRKSSVNGSSATSSG
# Variants of: B1
# Settings: with ubc_human UBC
row,Variant,effect of a mutation on the interaction
1,C18Y,increasing interaction
